The target of the assay is T1, HA-ubiquitin (expressed from pMT123-HA-ubiquitin) (UniProt P0CG48 1-76).
T1 construct: Co-expressed in HEK 293T cells and detected with anti-HA after anti-myc immunoprecipitation; It attaches covalently (isopeptide bond, polyubiquitin chains); P0CG48 is the polyubiquitin-C precursor; a single ubiquitin unit is 76 residues; not shown: HA tag of the pMT123-HA-ubiquitin plasmid
The assay can be described thus: covalent ubiquitination in HEK 293T cells: anti-myc IP, anti-HA Western blot. A general note: A western blot detects proteins with antibodies after separation by electrophoresis.

B1: myc-EGF WT (expressed from pcDNA3-myc-EGF WT) (ligand)
chain: NSDSECPLSHDGYCLHDGVCMYIEALDKYACNCVVGYIGERCQYRDLKWWELR
modifications: not fully specified
notes: Expressed inside HEK 293T cells; also called human EGF; not shown: myc tag of the pcDNA3-myc vector
Take B1: the binding result is on record as “binds”.

These data come from patent US20200270301A1 (UBIPROTEIN, published 2020).
